# Measured values as given in US20110306044A1.
# “And” between values parts separate entries of the source, which are not always exact repeats. Equal entries are not always repeated.
# Experiments:
# [1] = target: RDC-1 (NEOKINE receptor), transiently expressed in 293 cells; experiment: 125I-T112 at 0.1 nm on 293 cells transiently transfected with RDC-1, no competitor
# [2] = target: RDC-1 (NEOKINE receptor), transiently expressed in 293 cells; experiment: competition: bound 125I-T112 on RDC-1-transfected 293 cells with unlabelled T112 at 3.0 nm
cpm bound in cell pellets [1],cpm bound in cell pellets [2],Substance
37600 cpm and 27000 cpm,,125I-T112 (radioiodinated NEOKINE) (ligand)
,8340 cpm and 9230 cpm,"T112 (NEOKINE), unlabelled (ligand)"
